We go through nine molecules from patent publication US7205275 (dated 2007).

First the molecules themselves.
B1: PEG3.4K(L1-7 Peptide)2 (peptide)
chain: CGGGGGAQTNFMPMDDLEQRLYEQFILQQGLE
modifications: not fully specified (residue 1); printed as C-GGGGG-AQ-TNFMPMDDLEQRLYEQFILQQG-LE; also: dimer linked by PEG 3.4K via N-terminal Cys
B2: mouse Ang-2 (protein)
chain: YSNFRKSVDSTGRRQYQVQNGPCSYTFLLPETDSCRSSSSPYMSNAVQRDAPLDYDDSVQRLQVLENILENNTQWLMKLENYIQDNMKKEMVEIQQNVVQNQTAVMIEIGTSLLNQTAAQTRKLTDVEAQVLNQTTRLELQLLQHSISTNKLEKQILDQTSEINKLQNKNSFLEQKVLDMEGKHSEQLQSMKEQKDELQVLVSKQSSVIDELEKKLVTATVNNSLLQKQQHDLMETVNSLLTMMSSPNSKSSVAIRKEEQTTFRDCAEIFKSGLTTSGIYTLTFPNSTEEIKAYCDMDVGGGGWTVIQHREDGSVDFQRTWKEYKEGFGSPLGEYWLGNEFVSQLTGQHRYVLKIQLKDWEGNEAHSLYDHFYLAGEESNYRIHLTGLTGTAGKISSISQPGSDFSTKDSDNDKCICKCSQMLSGGWWFDACGPSNLNGQYYPQKQNTNKFNGIKWYYWKGSGYSLKATTMMIRPADF
B3: Con4 (C) (peptide)
chain: M[Fc]GGGGGAQQEECEWDPWTCEHMLE
modifications: not fully specified (bridges); printed as M-Fc-GGGGGAQQEECEWDPWTCEHMLE; cysteine pairing not given here; also: Fc fusion domain at position 2
B4: TN12-9 (N) (peptide)
chain: MGAQFDYCEGVEDPFTFGCDNHLEGGGGGX
modifications: not fully specified (C-terminus, bridges); printed as MGAQ-FDYCEGVEDPFTFGCDNHLE-GGGGG-Fc; cysteine pairing not given here
B5: human Ang-1 (protein)
chain: SNQRRSPENSGRRYNRIQHGQCAYTFILPEHDGNCRESTTDQYNTNALQRDAPHVEPDFSSQKLQHLEHVMENYTQWLQKLENYIVENMKSEMAQIQQNAVQNHTATMLEIGTSLLSQTAEQTRKLTDVETQVLNQTSRLEIQLLENSLSTYKLEKQLLQQTNEILKIHEKNSLLEHKILEMEGKHKEELDTLKEEKENLQGLVTRQTYIIQELEKQLNRATTNNSVLQKQQLELMDTVHNLVNLCTKEGVLLKGGKREEEKPFRDCADVYQAGFNKSGIYTIYINNMPEPKKVFCNMDVNGGGWTVIQHREDGSLDFQRGWKEYKMGFGNPSGEYWLGNEFIFAITSQRQYMLRIELMDWEGNRAYSQYDRFHIGNEKQNYRLYLKGHTGTAGKQSSLILHGADFSTKDADNDNCMCKCALMLTGGWWFDACGPSNLNGMFYTAGQNHGKLNGIKWHYFKGPSYSLRSTTMMIRPLDF

Read-outs that look alike come from different tables or passages of the source. Primed or numbered codes have the meaning given here. Where no end group is shown, it is not given here. [ ]: non-standard residue; d: D form. Fc(3) = Fc: non-antigen-binding fragment of an antibody from proteolytic digestion of a whole antibody (vehicle); mPEG 5K = methoxy-PEG 5 kDa coupled via the N-terminal cysteine; Fc = immunoglobulin Fc domain fused to the peptide (peptibody); Fc″ = Fc domain of the peptibody fusion

In assay [1] the target is T1, human Ang-2 (human, UniProt O15123).
T1 chain: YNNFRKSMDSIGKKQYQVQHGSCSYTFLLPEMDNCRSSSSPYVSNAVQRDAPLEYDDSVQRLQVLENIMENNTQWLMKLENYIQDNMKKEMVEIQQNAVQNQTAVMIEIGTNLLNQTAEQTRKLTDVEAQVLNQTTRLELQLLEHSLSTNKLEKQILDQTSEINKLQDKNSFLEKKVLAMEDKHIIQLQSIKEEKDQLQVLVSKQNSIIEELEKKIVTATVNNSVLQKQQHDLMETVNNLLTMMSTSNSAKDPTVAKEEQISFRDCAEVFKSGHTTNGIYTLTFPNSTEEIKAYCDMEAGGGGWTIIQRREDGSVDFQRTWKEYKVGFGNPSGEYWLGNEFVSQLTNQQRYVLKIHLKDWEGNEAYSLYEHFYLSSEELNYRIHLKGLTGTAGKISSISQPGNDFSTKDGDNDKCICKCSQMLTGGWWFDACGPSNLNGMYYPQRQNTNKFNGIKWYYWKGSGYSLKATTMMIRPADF
As to the kind of experiment: competition ELISA vs Tie-2. For orientation: ELISA stands for enzyme-linked immunosorbent assay.

The target in assay [2] is T1, human Ang-2. As to the kind of experiment: SPR. For orientation: Surface plasmon resonance follows binding to a sensor surface in real time, without labels.
Assay [3] concerns the target T1, human Ang-2. As to the kind of experiment: competition ELISA vs Tie-2.
The target of assay [4] is T2, rat Ang-2 (rAng-2) (rat, UniProt O35462).
T2 chain: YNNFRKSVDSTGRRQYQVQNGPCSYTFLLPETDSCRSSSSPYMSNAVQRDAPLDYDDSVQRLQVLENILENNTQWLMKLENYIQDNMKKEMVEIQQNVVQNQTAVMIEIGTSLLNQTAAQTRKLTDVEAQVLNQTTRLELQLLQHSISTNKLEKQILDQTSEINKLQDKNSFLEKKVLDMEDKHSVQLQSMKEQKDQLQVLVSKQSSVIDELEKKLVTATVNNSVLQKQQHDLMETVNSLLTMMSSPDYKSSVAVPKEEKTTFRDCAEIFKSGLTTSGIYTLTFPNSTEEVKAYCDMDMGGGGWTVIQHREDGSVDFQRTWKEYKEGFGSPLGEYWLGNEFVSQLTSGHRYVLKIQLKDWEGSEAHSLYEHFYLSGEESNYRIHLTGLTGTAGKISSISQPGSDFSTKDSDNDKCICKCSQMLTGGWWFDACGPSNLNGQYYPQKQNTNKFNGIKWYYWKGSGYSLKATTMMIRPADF
As to the kind of experiment: competition ELISA vs Tie-2.

The target in assay [5] is T3, mouse Ang-1 (mouse, UniProt O08538).
T3 chain: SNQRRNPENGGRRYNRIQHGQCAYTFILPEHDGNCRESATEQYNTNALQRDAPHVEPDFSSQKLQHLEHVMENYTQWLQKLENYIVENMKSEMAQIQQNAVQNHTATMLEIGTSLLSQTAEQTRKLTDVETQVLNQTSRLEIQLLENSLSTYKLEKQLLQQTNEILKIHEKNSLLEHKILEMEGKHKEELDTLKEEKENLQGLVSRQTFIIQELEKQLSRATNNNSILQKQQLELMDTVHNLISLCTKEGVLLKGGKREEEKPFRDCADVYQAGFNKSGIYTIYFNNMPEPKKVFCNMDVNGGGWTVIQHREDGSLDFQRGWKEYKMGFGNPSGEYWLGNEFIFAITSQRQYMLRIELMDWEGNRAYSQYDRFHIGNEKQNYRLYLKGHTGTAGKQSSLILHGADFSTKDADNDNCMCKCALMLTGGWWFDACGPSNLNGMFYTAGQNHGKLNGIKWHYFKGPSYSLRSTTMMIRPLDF
As to the kind of experiment: competition ELISA vs Tie-2.

Assay [6] addresses T1, human Ang-2. As to the kind of experiment: competition ELISA vs Tie-2.
Assay [7] concerns the target T4, cAng-2 (UniProt O15123).
T4 chain: T1 chain
The experiment in a line: competition ELISA vs Tie-2.

Assay [8] has as its target B2. The experiment in a line: competition ELISA vs Tie-2.
Assay [9] deals with B5. The experiment in a line: competition ELISA vs Tie-2.
Assay [10] addresses Negative Control Peptibody 4883. As to the kind of experiment: ELISA.
For assay [11], the target named is T1, human Ang-2. The experiment in a line: competition ELISA vs Tie-2.
In assay [12] the target is B2. The experiment in a line: competition ELISA vs Tie-2.
Assay [13] concerns the target T1, human Ang-2. The experiment in a line: SPR.
The target in assay [14] is B2. As to the kind of experiment: SPR.
Assay [15] has as its target B5. As to the kind of experiment: competition ELISA vs Tie-2.
For assay [16], the target named is Negative Control Peptibody 4883. As to the kind of experiment: ELISA. This is another data set of the same source.

Take B1: the IC50 (usually the concentration needed to halve the response being measured) in [1] is 0.058 nM.
MGAQTNFMPMDDLEQRLYEQFILQQGLEGGGGG-Fc [L1-7 (N)]: binding in [2] was put at a Kd of 0.24 nM. In addition, the IC50 in [3] was 0.046 nM; in [4], 0.035 nM; in assay [5], more than 1000 nM; in assay [6] it was 0.03 nM; in assay [7] it was 0.108 nM; in assay [8], 0.063 nM. Besides, in [9], the IC50 is more than 1000 nM.
Turning to B2, in [10], the binding result is reported as “no binding”.
Regarding B3, the IC50 in [11] came to 0.2 nM; in assay [3], 0.197 nM; in assay [4] it was 0.236 nM; in [5], 300 nM; in assay [7] it was 0.54 nM; in [8], 0.289 nM. Also, the results for the IC50 in assay [12] and in assay [9] were 0.3 nM and 200 nM, respectively. The Kd – broadly, the concentration at which binding is half-saturated – in [2] is 0.38 nM.
In the case of C(mPEG 5K)GGGGGAQTNFMPMDDLEQRLYEQFILQQGLE [mPEG5K-(L1-7 Peptide)], the IC50 in assay [1] stood at 11.7 nM.
Consider B4, for which the values for the Kd in assay [13] and in [14] were 8.2 nM and 0.32 nM, respectively. For the same molecule, the results for the IC50 in [11], in [15] and in assay [12] were 21 nM, more than 1000 nM and 7.7 nM, respectively.
In assay [2], MGAQHTFQPLDELEETLYYQWLYDQLLEGGGGG-{Fc″} [L1-21 (N)] registered a Kd of 0.24 nM. Also, the IC50 in assay [3] was 0.179 nM; in assay [4], 0.204 nM; in [5], more than 1000 nM; in assay [6], 0.17 nM; in assay [7] it was 0.608 nM; in assay [8], 0.249 nM. Also, the IC50 in assay [9] is more than 1000 nM.
As to B5, in assay [16], the binding result is listed as “no binding”.
Take MGAQKFNPLDELEETLYEQFTFQQLEGGGGG[Fc(3)] [L1 (N)]: the results for the Kd in assay [13] and in assay [14] were 3.1 nM and 0.42 nM, respectively. Moreover, the IC50 in [11] is 6 nM; in assay [15] it was more than 1000 nM; in assay [12], 11 nM.
